In patent US20040072368A1, “Lipoprotein receptor” (priority 2002, published 2004):

Legend:
[1] = biological target: beta-subunit of ATP synthase (F1 domain) on the cell surface of human hepatocytes (human) (UniProt P06576)
[2] = biological target: beta-subunit of ATP synthase (F1 domain) on the cell surface of human hepatocytes (human) (UniProt P06576); assay: cell-based or functional assay
[3] = biological target: ectopic ATP synthase of rat liver (rat) (UniProt P10719); assay: cell-based or functional assay
Chain of ectopic ATP synthase of rat liver (rat) (P10719 47-529, chain 1 of 2): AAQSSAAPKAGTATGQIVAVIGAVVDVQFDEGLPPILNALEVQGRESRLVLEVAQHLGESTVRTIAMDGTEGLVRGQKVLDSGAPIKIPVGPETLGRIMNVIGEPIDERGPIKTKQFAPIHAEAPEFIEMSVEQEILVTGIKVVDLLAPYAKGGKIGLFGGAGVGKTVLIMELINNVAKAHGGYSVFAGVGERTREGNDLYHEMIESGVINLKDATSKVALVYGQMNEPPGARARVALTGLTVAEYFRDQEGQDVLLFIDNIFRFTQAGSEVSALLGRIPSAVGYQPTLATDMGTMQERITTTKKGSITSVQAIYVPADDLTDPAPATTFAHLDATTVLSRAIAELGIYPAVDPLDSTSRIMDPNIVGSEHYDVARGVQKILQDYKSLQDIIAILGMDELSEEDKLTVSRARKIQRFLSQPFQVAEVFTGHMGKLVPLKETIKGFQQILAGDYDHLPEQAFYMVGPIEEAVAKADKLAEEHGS
Chain of ectopic ATP synthase of rat liver (rat) (P15999 44-553, chain 2 of 2, further chain): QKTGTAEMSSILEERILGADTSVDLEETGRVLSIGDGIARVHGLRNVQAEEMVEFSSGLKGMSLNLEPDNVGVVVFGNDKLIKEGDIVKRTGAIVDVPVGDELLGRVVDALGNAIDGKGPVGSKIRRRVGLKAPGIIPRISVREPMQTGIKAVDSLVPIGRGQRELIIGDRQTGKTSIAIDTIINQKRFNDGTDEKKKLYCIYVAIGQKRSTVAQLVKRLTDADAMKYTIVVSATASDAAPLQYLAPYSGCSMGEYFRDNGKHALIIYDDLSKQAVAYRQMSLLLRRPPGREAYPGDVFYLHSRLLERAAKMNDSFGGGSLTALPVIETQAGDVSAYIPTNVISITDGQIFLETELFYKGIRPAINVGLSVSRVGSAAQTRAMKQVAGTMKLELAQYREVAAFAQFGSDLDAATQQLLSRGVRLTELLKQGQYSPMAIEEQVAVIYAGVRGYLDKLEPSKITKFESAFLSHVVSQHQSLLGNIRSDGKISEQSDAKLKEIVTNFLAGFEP

Chain of beta-subunit of ATP synthase (F1 domain) on the cell surface of human hepatocytes (human) (P06576 48-529 E274Q limits assumed): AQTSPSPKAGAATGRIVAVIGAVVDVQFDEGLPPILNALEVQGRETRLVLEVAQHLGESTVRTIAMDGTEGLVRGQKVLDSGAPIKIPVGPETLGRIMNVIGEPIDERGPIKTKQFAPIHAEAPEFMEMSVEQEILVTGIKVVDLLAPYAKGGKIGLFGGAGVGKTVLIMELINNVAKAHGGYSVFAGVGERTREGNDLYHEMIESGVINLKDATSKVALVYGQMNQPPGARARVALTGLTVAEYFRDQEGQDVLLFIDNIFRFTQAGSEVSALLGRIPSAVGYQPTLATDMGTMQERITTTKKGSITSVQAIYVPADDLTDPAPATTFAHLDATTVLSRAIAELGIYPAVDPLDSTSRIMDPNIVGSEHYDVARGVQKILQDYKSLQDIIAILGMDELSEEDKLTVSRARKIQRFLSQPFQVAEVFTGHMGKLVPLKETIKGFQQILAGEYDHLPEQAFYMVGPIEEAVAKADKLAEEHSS

B1: IF1 protein, natural inhibitor protein of mitochondrial F1-ATPase (protein, UniProt P01096 26-109, looked up, species assumed)
ATPase inhibitor, mitochondrial: GSESGDNVRSSAGAVRDAGGAFGKREQAEEERYFRARAKEQLAALKKHHENEISHHAKEIERLQKEIERHKQSIKKLKQSEDDD
In the case of B1, the IC50 (read off the curve), 125I-TG-HDL2 internalisation by HepG2 cells, without apoA-I [1] is reported as 8 nM, the [α-32P]-ADP generated from [α-32P]-ATP at the HepG2 cell surface (HPLC), 100 nM IF1 [2] is reported as 48 % decrease and the TG-HDL2 internalisation by perfused rat liver, 45 min, 1 µM IF1 [3] is reported as < 45 % decrease.
